Measured values published in US20240287489A1, “CHITINOLYTIC ENZYME-BASED PLANT PROTECTION AGENTS” (GLOBACHEM NV, priority 2021, published 2024).

How the values were obtained:
D. melanogaster eggs = experiment: Larvae survival after treatment of D. melanogaster eggs; format: in vivo; details: chitinase concentrations from 10% to 0.1%
Procedure: The effects of chitinases on insects was tested on D. melanogaster eggs. Briefly, eggs were treated with chitinase 1 or a control, and larvae survival was assessed 3 days after treatment (DAT). Results for chitinase concentrations of concentration from 10% to 0.1% were as follows: […]

[1] = Chitinase mixture design, conversion rate of chitin powder (reducing end assay); format: biochemical; details: 2 μM Factor A
Procedure: All five chitinases implemented in the DoE originated from a novel marine Photobacterium strain expressing these enzymes to carry out a conversion of crystalline chitin to monomeric and dimeric polysaccharides. All chitinases were produced recombinantly using E. coli BL21 (DE3) and characterized regarding optimum reaction conditions and product properties in Example 2. As so far only singular enzyme reactions were carried out, the DoE approach was used to 1) determine ideal enzyme combinations to maximize product rates 2) identify possible enzyme combinations to alter product distribution in terms of DP. […] The amount of released reducing sugars from the enzymatic degradation was quantified by the reducing end assay and used as a primary response.
The optimization function in Design Expert was used to model enzyme mixtures to maximize the overall conversion rate of chitin to oligomeric chitin mixtures. Three mixture solutions for maximized chitin (S1-83 Max) oligomer rates were tested and quantitative data was compared to the values predicted by the model. […]
Enzymatic activity of recombinant chitinases was determined by carrying out a reducing end assay [J., H., Svein, E., and H., V. G., Carbohydr Polym, 2004. […] Samples were cooled down to room temperature and absorption was determined at 620 nm. […]

Fusarium culmorum = experiment: Minimum inhibitory concentration (MIC) test on fungal pathogens; format: cell-based
Procedure: The start concentration of each chitinase used in minimum inhibitory concentration (MIC) tests was 100 μg/ml.
The chitinases were further tested for their protective activity in germination tests. Briefly, the following steps were conducted: • 1. Disinfection of wheat seeds in 10% bleach for 10 minutes in a biosafety cabinet • 2. Germination on filter paper • 3. Foliar application 3 dps (days post seeding) and 1 dbi (day before infection) • 4. 4 dps: add pathogen Fusarium culmorum • 5. Monitoring germination and plant health/phytotox

[2] = tested on: corn (maize), rice, barley; experiment: Protection of plants against abiotic stress (drought, flooding, salt, frost); format: in vivo, pear, cherry; details: foliar and/or seed application
Description: FIGS. 18A-18E. Use of chitinase 1 as plant protection agent against abiotic stresses. Plant length (PL) FIG. 18A: after foliar application on corn in presence of drought or flooding stress; FIG. 18B: after foliar, seed or foliar+seed application on corn in presence of drought stress; FIG. 18C: after foliar application on rice in presence of salt stress; FIG. 18D: after foliar application on corn in presence of salt stress; FIG. 18E: after seed application on barley in presence of drought stress.
FIGS. 19A-19B. Use of chitinase 1 as plant protection agent against abiotic stresses. Yield FIG. 19A: of pears after foliar application in presence of frost stress; FIG. 19B: of cherries after foliar application in presence of frost stress.
Chitinase 1 was tested for protective effects against abiotic stress. Abiotic stresses tested were drought, flooding, salt, or frost stress. Plants tested were: corn (maize), rice, barley, pear and […]. Test conditions were as follows:
• plants are drilled in trays • germination at 25° C./15° C. (day/night) light 16 h, dark 8 h • application 10 days later • 2 days later replanted in pots of 8×8 cm • 3 possible regimes • no water • every day water with flooding system • continuous water
• plants are drilled in trays • germination at 25° C./15° C. […]

B1: Chitinase 1: chitinolytic enzyme from P. orarium, SEQ ID NO: 1, recombinant with PelB signal peptide and 6×His tag; run 19 = 2 μM alone (protein, listed as Photobacterium orarium)
chain: MAAPGTPQIAWMETDYAIVEVDQAASAYKSLITVKPAAEVPVAWQRYSGETADLWKVKLNGNVVFEQSIAPASSGAGSTTLSVAQGGQYAMTVELCSGTGAAQACTSSAATNIVVADTDGSHLDPLPMNVDANNGNYTTPANTVVGAYFVEWGVYGRKFSVDNIPAQNLTHILYGFIPICGPNESLGEIENGNSLAALNRACQGTPDYEVVIHDPWAAVQMPQPQSGHTHSTPYKGTYGQMMALKQRYPDLKIVPSVGGWTLSDPFYSFTDKAKRDIFVASVKKFLKTWKFFDGVDIDWEFPGGKGANANLGDPVNDGPAYVALMRELRVMLDELEAETGRQYELTSAIGVGYDKIDVVNYADAVQYMDYIFAMTYDFFGGWNNVPGHQTALFCGSHMSADVCNGTGVDENGVPRQGPAYTAAHGIDRLLAQGVPANKLVLGTAMYARGWTGVTEASMTDPTNPMTGTGNGMVPGSWEPGVIDYKDVVTDYINNAAVTKGYDAQAEAPWAYNPSNGNLITYDDRRSVLAKGQYVRNLGLAGLFAWEIDADNGDILNAMQDSLAGGGGNYAPVAKAGADQVVNGAASVTLDGSASSDRDGQIVSYQWTQTSGPALTLTGSDTATATVAVPEVTADTQYAFTLTVTDNAGDTATDSVTVTAKAPGSNTAPVVAVSGPATASAGDTVVLDASQSSDADGDTLTFTWTVPAGVNATVNGATVSFVADSYTVDTPLNFTVAVSDGTDSVTESVTVTVLKDGGSTGCTNAWATGGVYNSGDIVTHSGKSWKAKWWTTGEEPGTTGEWGVWEDLGAANCQIE
modifications: PelB signal peptide; 6xHis tag; Chitinase 1
notes: run 19 = 2 μM alone
- % mortality (D. melanogaster eggs; 3 days after treatment, control 25): 36%
- % survival (D. melanogaster eggs; larvae survival 3 days after treatment, control 75): 64%
- conversion rate (highest of the design runs) [1]: 502 nmol/mL/h
- inhibition of Fusarium culmorum in the MIC assay (Fusarium culmorum): showed inhibition
- protection from abiotic stress (plant length, fruit yield) [2]: protects the plants from different abiotic stresses
